Data as given in patent publication US20230009582A1 (MEMO THERAPEUTICS, published 2023).

B1: comparative monoclonal antibody mAbA (WO 2017/153433), mouse-human chimera (antibody, human IgG1, kappa, V domains shown)
VH: QVQLQQPGAELVKPGSPVKLSCKASYFTFTSYWMHWVRQRPGQGLEWIGEINPSNGHTNYNEKFESKATLTVDRSSSTAYMQLSSLTSEDSAVFYCANGVESYDFDDALDYWGQGTSVTVSS
VL: DIQMTQTTSSLSASLGDRVTISCRASQDINNYLNWYQQKPDGTIKLLIYYTSRLHSGVPSRFSGSGSGTDYSLTINNLEQEDIATYFCQQGNTLPFTFGGGTKLEIKR
B2: monoclonal antibody 224B1 (rabbit) (antibody, V domains shown)
VH: QSVEESGGRLVTPETPLTLTCTASGFSLSSYYMSWVRQAPGKGLEWIGYIWTDGSAHYATWTKGRFTISKTSSTTVDLKITSPTTEDTATYFCVRANSGSHTYIEKFNLWGPGTLVTVSS
VL: DVVMTQTPASVEATVGGSVTIKCQASPSINDELSWYQQKPGQRPTLLIYEASALESGVPSRFKGSGSGTEFTLTIGDLECADAATYYCQCTYGSRSDISYGNTFGGGTEVVVKG

What was measured:
[1] = molecular target: T1, Siglec-15-Fc (R&D systems) (UniProt Q6ZMC9 20-263, limits assumed); assay: ELISA, coated Siglec-15-Fc 1 µg/ml, single antibody concentration, anti-human Fab detection, Abs 450 nm, n=3
T1 construct: Bought reagent; not shown: Fc part of the bought fusion; not described
T1 sequence (looked up): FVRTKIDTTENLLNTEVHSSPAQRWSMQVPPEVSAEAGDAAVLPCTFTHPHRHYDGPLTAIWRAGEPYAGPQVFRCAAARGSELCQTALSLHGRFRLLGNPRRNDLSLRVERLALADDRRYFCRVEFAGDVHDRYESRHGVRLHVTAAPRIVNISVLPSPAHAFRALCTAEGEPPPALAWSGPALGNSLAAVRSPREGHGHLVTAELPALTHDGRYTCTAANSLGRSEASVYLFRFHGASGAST
Protocol: Specificity towards Siglec-5, Siglec-7, Siglec-8, Siglec-15 and Siglec-9 was assayed in enzyme-linked immunosorbent assay (ELISA) using 96 well half-area ELISA plates (Corning). Siglec-5-Fc (R&D systems), Siglec-7-Fc (in-house production, Siglec-7-Fc protein used had the following amino acid sequence:
(SEQ ID NO: 59)) […] […] […] […] […] […] […] […] […] […] […] […], Siglec-8-Fc (R&D systems), Siglec-15- Fc (R&D systems) and Siglec-9-Fc (in-house production, SEQ ID NO: 11) were coated at 1 μg/ml in 50 mM carbonate-bicarbonate buffer pH 9.6 for 15-20 hours at 4° C.
Antigens were washed away (Tecan Hydrospeed) and plates were blocked with 5% skimmed milk in phosphate-buffered saline (PBS). After washing the plates, antibodies were added at 5 μg/ml (33 nM) in 0.5% milk PBS in triplicates. Plates with antibodies were incubated for 1 hour at room temperature. Plates were washed and bound antibodies were detected by horseradish peroxidase (HRP)-labeled polyclonal anti-rabbit IgG antibody (Biolegend) or anti-human Fab fragment for mAbA (Sigma Aldrich). 3,3′,5,5′-Tetramethylbenzidine (TMB; Sigma Aldrich) development was stopped by addition of sulfuric acid and absorbance was detected at 450 nm (Tecan, CM […] MONO 200).

[2] = molecular target: Siglec-9 protein (construct not stated; antigen of Examples 3 and 4) (human, UniProt Q9Y336 18-348, limits assumed); assay: ELISA, coated Siglec-9 1 µg/ml, antibody titrated, anti-human Fab detection, Abs 450 nm, three-parameter fit, n=3
Protocol: FIG. 2: Binding curves of monoclonal antibodies (68D4 and 224B1; comparative monoclonal antibodies mAbA and 5C6 & negative control 53C3) towards Siglec-9 as analysed by ELISA. Binding of the monoclonal antibody to Siglec-9, as determined by measurement of the accumulated coloured product at 450 nm after stopping the reaction, is plotted against the concentration of the monoclonal antibody under evaluation.
Antibody binding affinity towards Siglec-9 was measured by a dilution series of the analysed antibodies on a fixed concentration of Siglec-9 protein in ELISA. To this end, Siglec-9 was coated at 1 μg/ml in 50 mM carbonate-bicarbonate buffer pH 9.6 for 15-20 hours at 4° C. Antigen solution was washed away (Tecan Hydrospeed) and plates were blocked with 5% skimmed milk in phosphate-buffered saline (PBS) for 1 hour at room temperature. Plates were washed and antibodies were added at concentrations of 0-420 nM. […] Bound antibodies were detected by addition of horseradish peroxidase (HRP)-coupled secondary antibodies. Rabbit antibodies were detected by polyclonal anti-rabbit IgG antibody (Biolegend), mAbA by anti-human Fab fragment (Sigma Aldrich). […] Absorbance was detected at 450 nm (Tecan, CM […] MONO 200). Data were fitted and EC50 values were determined by three-parameter analysis in GraphPad Prism (GraphPad Software)

[3] = molecular target: T2, Siglec-9 expressed on cells (human, UniProt Q9Y336 18-463); assay: flow cytometry on human CD14+ monocytes (PBMC), mean RFU of the secondary antibody, three-parameter fit
T2 construct: also called monocyte-expressed Siglec-9
Protocol: Human ex vivo PBMC were stained with fluorescence-labeled (allophycocyanin, APC) antibody to the monocyte marker CD14 (Biolegend) in assay buffer (0.5% (v/v) heat-inactivated fetal bovine serum (Gibco), 2 mM EDTA in phosphate-buffered saline). Subsequently, cells were incubated with antibodies under evaluation at various concentrations (67 nM-0.38 pM). After a washing step cells were incubated with fluorescence-labeled (Brilliant Violet 421™) secondary antibody against human IgG (mAbA) or rabbit IgG (all other monoclonal antibodies under evaluation; both secondary antibodies from Biolegend).
Binding of Siglec-9-specific antibodies to monocytes (CD14-positive life cells) was analysed with a CytoFLEX flow cytometer (Beckham Coulter's). The mean fluorescence intensity of the secondary antibody staining in the CD14-positive population at each dilution was determined using Flow Jo software (BD). Datapoints generated by this analysis were fitted and EC50 values were determined by three-parameter analysis in GraphPad Prism (GraphPad Software)

Chain of Siglec-9 protein (construct not stated; antigen of Examples 3 and 4) (Q9Y336 18-348 limits assumed): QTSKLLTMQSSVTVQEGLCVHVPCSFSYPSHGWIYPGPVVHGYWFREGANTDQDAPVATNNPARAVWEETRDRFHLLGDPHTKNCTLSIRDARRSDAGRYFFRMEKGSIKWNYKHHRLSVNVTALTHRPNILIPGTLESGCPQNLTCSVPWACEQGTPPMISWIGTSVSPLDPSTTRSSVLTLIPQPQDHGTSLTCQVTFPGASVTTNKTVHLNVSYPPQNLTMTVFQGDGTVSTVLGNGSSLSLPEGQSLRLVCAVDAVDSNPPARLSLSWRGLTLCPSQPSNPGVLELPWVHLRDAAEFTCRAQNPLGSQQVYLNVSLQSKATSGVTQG
T2 sequence (Q9Y336 18-463 limits assumed): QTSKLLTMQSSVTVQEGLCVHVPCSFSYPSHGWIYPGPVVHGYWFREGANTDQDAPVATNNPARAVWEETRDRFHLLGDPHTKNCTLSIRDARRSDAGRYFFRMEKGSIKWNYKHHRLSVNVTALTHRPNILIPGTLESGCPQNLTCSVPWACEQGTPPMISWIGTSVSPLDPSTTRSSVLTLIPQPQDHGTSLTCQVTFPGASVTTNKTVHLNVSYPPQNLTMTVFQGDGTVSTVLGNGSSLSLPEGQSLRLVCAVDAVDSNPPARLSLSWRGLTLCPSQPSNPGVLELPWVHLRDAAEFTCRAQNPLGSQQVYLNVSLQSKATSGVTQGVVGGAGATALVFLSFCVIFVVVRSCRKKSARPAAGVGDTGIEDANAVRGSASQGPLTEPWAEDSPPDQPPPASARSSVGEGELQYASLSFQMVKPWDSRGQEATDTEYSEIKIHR

Row | Binder | binding result [1] | EC50 [2] | EC50 [3]
1 | B1 | no binding (tested: 5 µg/ml) | 0.42 nM | 
2 | B2 |  |  | 0.4 nM
